Values quoted from earlier work as cited in paper PMC10342495.

Molecular target: IL-18 (Homo sapiens) (UniProt Q14116)
Sequence (Q14116 37-193): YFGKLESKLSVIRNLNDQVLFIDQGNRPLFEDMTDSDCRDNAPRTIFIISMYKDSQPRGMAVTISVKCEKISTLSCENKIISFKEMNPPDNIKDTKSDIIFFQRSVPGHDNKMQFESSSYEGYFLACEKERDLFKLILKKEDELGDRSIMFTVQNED

Sequence of IL-18BP (O95998 31-194): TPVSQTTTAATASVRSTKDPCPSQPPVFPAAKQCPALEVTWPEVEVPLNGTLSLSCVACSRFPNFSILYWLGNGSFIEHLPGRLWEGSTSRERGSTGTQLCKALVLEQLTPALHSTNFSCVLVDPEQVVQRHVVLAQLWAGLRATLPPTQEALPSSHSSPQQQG

Substance: IL-18BP (from UniProt O95998)
- Kd: 0.4 nM
